{
  "source": "patent US20220331423A1",
  "about": "(WISTAR INSTITUTE OF ANATOMY AND BIOLOGY, published 2022)",
  "binders": {"B1": {"name": "human HVEM fused to Enhanced Green Fluorescence Protein, expressed on B78H1/3E5 cells (receptor)", "chain": "LPSCKEDEYPVGSECCPKCSPGYRVKEACGELTGTVCEPCPPGTYIAHLNGLSKCLQCQMCDPAMGLRASRNCSRTENAVCGCSPGHFCIVQDGDHCAACRAYATSSPGQRVQKGGTESQDTLCQNCPPGTFSPNGTLEECQHQTKCSWLVTKAGAGTSSSHWVWWFLSGSLVIVIVCSTVGLIICVKRRKPRGDVVKVIVSVQRKRQEAEGEATVIEALQAPPDVTTVAVEETIPSFTGRSPNH", "notes": "whole, on cells; Mouse melanoma cells B78H1/3E5; also called HVEM-EGFP; HVEM on B78-H1/3E5 cells; not shown: Enhanced Green Fluorescence Protein (EGFP)"}},
  "biological_target": "T1, HSV-1 glycoprotein D (gD), non-fused, expressed from AdC68gD (HSV-1, UniProt Q05059 26-394)",
  "T1 construct": "Complete gD open reading frame (from pRE4) expressed in AdC68gD-infected cells; Tested as detergent cell extract (ELISA) or on and within infected cells; also called native gD; non-fused gD",
  "T1 sequence (Q05059 26-394)": "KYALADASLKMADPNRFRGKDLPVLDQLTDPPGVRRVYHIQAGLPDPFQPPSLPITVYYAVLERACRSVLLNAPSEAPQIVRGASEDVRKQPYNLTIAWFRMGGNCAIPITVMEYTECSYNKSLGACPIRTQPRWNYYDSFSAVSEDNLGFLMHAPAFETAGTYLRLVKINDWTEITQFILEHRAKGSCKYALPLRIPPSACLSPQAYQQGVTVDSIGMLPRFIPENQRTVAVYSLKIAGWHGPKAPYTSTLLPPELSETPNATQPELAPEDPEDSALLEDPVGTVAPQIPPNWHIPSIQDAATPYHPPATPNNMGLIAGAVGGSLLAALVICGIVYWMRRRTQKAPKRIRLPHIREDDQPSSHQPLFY",
  "test": "confocal microscopy of AdC68gD-infected B78-H1/3E5 (human HVEM-EGFP) cells stained with MAb to gD",
  "data": [
    {"binder": "B1", "values": [
      {"measurement": "binding result", "result": "binds"}
    ]}
  ]
}
